B1: MIA2 (parent)
chain: NSISSDKEATVPCTEILTEKKDTI

Variants of: B1
Assay: protein stability index of a GFP-peptide fusion (GPS, HEK-293T) (PSI 1-6); higher = more stable
Conditions: c terminus: a fixed tail appended
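Note: lentivirally expressed fusions sorted by FACS into six bins by GFP to DsRed ratio, PSI derived from sequencing read proportions per bin multiplied by bin number.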

| Variant | protein stability index |
| --- | --- |
| NSISSDKKATVPCTEILTEKKDTI [E8K] | 5.46 |
| NSISSDKLATVPCTEILTEKKDTI [E8L] | 5.31 |
| NSISSDKMATVPCTEILTEKKDTI [E8M] | 5.14 |
| NSISSDKNATVPCTEILTEKKDTI [E8N] | 5.31 |
| NSISSDKPATVPCTEILTEKKDTI [E8P] | 5.27 |
| NSISSDKQATVPCTEILTEKKDTI [E8Q] | 5.52 |
| NSISSDKRATVPCTEILTEKKDTI [E8R] | 5.74 |
| NSISSDKSATVPCTEILTEKKDTI [E8S] | 5.46 |
| NSISSDKTATVPCTEILTEKKDTI [E8T] | 5.17 |
| NSISSDKVATVPCTEILTEKKDTI [E8V] | 4.99 |
| NSISSDKWATVPCTEILTEKKDTI [E8W] | 4.73 |
| NSISSDKYATVPCTEILTEKKDTI [E8Y] | 4.95 |
| NSISSDKECTVPCTEILTEKKDTI [A9C] | 4.71 |
| NSISSDKEDTVPCTEILTEKKDTI [A9D] | 5.11 |
| NSISSDKEETVPCTEILTEKKDTI [A9E] | 5.28 |
| NSISSDKEFTVPCTEILTEKKDTI [A9F] | 5.36 |
| NSISSDKEGTVPCTEILTEKKDTI [A9G] | 5.42 |
| NSISSDKEHTVPCTEILTEKKDTI [A9H] | 5.32 |
| NSISSDKEITVPCTEILTEKKDTI [A9I] | 5.3 |
| NSISSDKEKTVPCTEILTEKKDTI [A9K] | 5.47 |
| NSISSDKELTVPCTEILTEKKDTI [A9L] | 5.32 |
| NSISSDKEMTVPCTEILTEKKDTI [A9M] | 5.59 |
| NSISSDKENTVPCTEILTEKKDTI [A9N] | 4.88 |
| NSISSDKEPTVPCTEILTEKKDTI [A9P] | 5.38 |

| Variant | protein stability index |
| --- | --- |
| NSISSDKEQTVPCTEILTEKKDTI [A9Q] | 5.25 |
| NSISSDKERTVPCTEILTEKKDTI [A9R] | 5.23 |
| NSISSDKESTVPCTEILTEKKDTI [A9S] | 5.31 |
| NSISSDKETTVPCTEILTEKKDTI [A9T] | 5.38 |
| NSISSDKEVTVPCTEILTEKKDTI [A9V] | 5.17 |
| NSISSDKEWTVPCTEILTEKKDTI [A9W] | 4.79 |
| NSISSDKEYTVPCTEILTEKKDTI [A9Y] | 5.05 |
| NSISSDKEAAVPCTEILTEKKDTI [T10A] | 5.65 |
| NSISSDKEACVPCTEILTEKKDTI [T10C] | 5.5 |
| NSISSDKEADVPCTEILTEKKDTI [T10D] | 5.61 |
| NSISSDKEAEVPCTEILTEKKDTI [T10E] | 5.82 |
| NSISSDKEAFVPCTEILTEKKDTI [T10F] | 5.27 |
| NSISSDKEAGVPCTEILTEKKDTI [T10G] | 5.4 |
| NSISSDKEAHVPCTEILTEKKDTI [T10H] | 5.48 |
| NSISSDKEAIVPCTEILTEKKDTI [T10I] | 5.2 |
| NSISSDKEAKVPCTEILTEKKDTI [T10K] | 5.24 |
| NSISSDKEALVPCTEILTEKKDTI [T10L] | 5.43 |
| NSISSDKEAMVPCTEILTEKKDTI [T10M] | 5.17 |
| NSISSDKEANVPCTEILTEKKDTI [T10N] | 5.6 |
| NSISSDKEAPVPCTEILTEKKDTI [T10P] | 5.32 |
| NSISSDKEAQVPCTEILTEKKDTI [T10Q] | 5.48 |
| NSISSDKEARVPCTEILTEKKDTI [T10R] | 4.85 |
| NSISSDKEASVPCTEILTEKKDTI [T10S] | 5.72 |
| NSISSDKEAVVPCTEILTEKKDTI [T10V] | 5.29 |

| Variant | protein stability index |
| --- | --- |
| NSISSDKEAWVPCTEILTEKKDTI [T10W] | 5.07 |
| NSISSDKEAYVPCTEILTEKKDTI [T10Y] | 4.63 |
| NSISSDKEATAPCTEILTEKKDTI [V11A] | 5.38 |
| NSISSDKEATCPCTEILTEKKDTI [V11C] | 4.84 |
| NSISSDKEATDPCTEILTEKKDTI [V11D] | 5.72 |
| NSISSDKEATEPCTEILTEKKDTI [V11E] | 5.52 |
| NSISSDKEATFPCTEILTEKKDTI [V11F] | 5.43 |
| NSISSDKEATGPCTEILTEKKDTI [V11G] | 5.07 |
| NSISSDKEATHPCTEILTEKKDTI [V11H] | 4.62 |
| NSISSDKEATIPCTEILTEKKDTI [V11I] | 5.28 |
| NSISSDKEATKPCTEILTEKKDTI [V11K] | 5.59 |
| NSISSDKEATLPCTEILTEKKDTI [V11L] | 5.41 |
| NSISSDKEATMPCTEILTEKKDTI [V11M] | 5.59 |
| NSISSDKEATNPCTEILTEKKDTI [V11N] | 5.49 |
| NSISSDKEATPPCTEILTEKKDTI [V11P] | 5.55 |
| NSISSDKEATQPCTEILTEKKDTI [V11Q] | 5.53 |
| NSISSDKEATRPCTEILTEKKDTI [V11R] | 5.28 |
| NSISSDKEATSPCTEILTEKKDTI [V11S] | 5.22 |
| NSISSDKEATTPCTEILTEKKDTI [V11T] | 5.67 |
| NSISSDKEATWPCTEILTEKKDTI [V11W] | 5.22 |
| NSISSDKEATYPCTEILTEKKDTI [V11Y] | 4.89 |
| NSISSDKEATVACTEILTEKKDTI [P12A] | 5.49 |
| NSISSDKEATVCCTEILTEKKDTI [P12C] | 5.28 |
| NSISSDKEATVDCTEILTEKKDTI [P12D] | 5.53 |

| Variant | protein stability index |
| --- | --- |
| NSISSDKEATVECTEILTEKKDTI [P12E] | 5.57 |
| NSISSDKEATVFCTEILTEKKDTI [P12F] | 4.92 |
| NSISSDKEATVGCTEILTEKKDTI [P12G] | 5.53 |
| NSISSDKEATVHCTEILTEKKDTI [P12H] | 5 |
| NSISSDKEATVICTEILTEKKDTI [P12I] | 5.11 |
| NSISSDKEATVKCTEILTEKKDTI [P12K] | 5.47 |
| NSISSDKEATVLCTEILTEKKDTI [P12L] | 4.54 |
| NSISSDKEATVMCTEILTEKKDTI [P12M] | 5.21 |
| NSISSDKEATVNCTEILTEKKDTI [P12N] | 5.51 |
| NSISSDKEATVQCTEILTEKKDTI [P12Q] | 5.4 |
| NSISSDKEATVRCTEILTEKKDTI [P12R] | 5.38 |
| NSISSDKEATVSCTEILTEKKDTI [P12S] | 5.63 |
| NSISSDKEATVTCTEILTEKKDTI [P12T] | 5.48 |
| NSISSDKEATVVCTEILTEKKDTI [P12V] | 5.35 |
| NSISSDKEATVWCTEILTEKKDTI [P12W] | 4.58 |
| NSISSDKEATVYCTEILTEKKDTI [P12Y] | 4.34 |
| NSISSDKEATVPATEILTEKKDTI [C13A] | 5.27 |
| NSISSDKEATVPDTEILTEKKDTI [C13D] | 5.54 |
| NSISSDKEATVPETEILTEKKDTI [C13E] | 5.57 |
| NSISSDKEATVPFTEILTEKKDTI [C13F] | 5.28 |
| NSISSDKEATVPGTEILTEKKDTI [C13G] | 5.49 |
| NSISSDKEATVPHTEILTEKKDTI [C13H] | 5.15 |

— the supplement of paper PMC10567573
